Experimental data reported in patent publication US20240116999A1, “CONFORMATIONALLY CONSTRAINED GLUCAGON ANALOGUES AND THEIR USE IN GLUCAGON-SINGLE CHAIN INSULIN FUSION PROTEINS” (THE TRUSTEES OF INDIANA UNIVERSITY, priority 2021, published 2024).

Biological target: glucagon receptor (GCGR)
Assay: cell-based or functional assay

EC50, cell-based cyclic AMP (cAMP) activity assay: 1.04 nM
Substance: dasiglucagon (Zealand Pharma) (peptide)
